Changes are numbered by the printed parent chain.
B1: G13 (antibody, human IgG1, lambda, L234A L235A, V domains shown)
VH: EVQLVESGGGLVQPGGSLKLSCAASGFTFNTYAMNWVRQASGKGLEWVARIRSKYNNYATYYADSVKDRFTISRDDSQSTAYLQMNSLKTEDTAVYYCVRHGNFGNSYVSWFAYWGQGTLVTVSS
VL: QAVVTQEPSLTVSPGGTVTLTCRSSTGAVTTSNYANWVQQKPGQAPRGLIYGTNKRAPWTPARFSGSLLGGKAALTLSGAQPEDEAEYYCALWYSNLWVFGGGTKLTVLG
B2: H07 (antibody, human IgG1, lambda, L234A L235A, V domains shown)
VH: B1 VH with A81L
VL: B1 VL with V38F, Y51G
B3: G14 (antibody, human IgG1, lambda, L234A L235A, V domains shown)
VH: B1 VH
VL: B1 VL with G71D
B4: H08 (antibody, human IgG1, lambda, L234A L235A, V domains shown)
VH: B1 VH with A81L
VL: B1 VL with V38F, Y51G, G71D
B5: H05 (antibody, human IgG1, lambda, L234A L235A, V domains shown)
VH: B1 VH with A81L
VL: B1 VL with V38F
B6: H11 (antibody, human IgG1, lambda, L234A L235A, V domains shown)
VH: B1 VH with A81L
VL: B1 VL with G48T, Y51G
B7: H01 (antibody, human IgG1, lambda, L234A L235A, V domains shown)
VH: B1 VH with A81L
VL: B1 VL with V38F, G48T
B8: H02 (antibody, human IgG1, lambda, L234A L235A, V domains shown)
VH: B1 VH with A81L
VL: B1 VL with V38F, G48T, G71D
B9: H12 (antibody, human IgG1, lambda, L234A L235A, V domains shown)
VH: B1 VH with A81L
VL: B1 VL with G48T, Y51G, G71D
B10: H10 (antibody, human IgG1, lambda, L234A L235A, V domains shown)
VH: B1 VH with A81L
VL: B1 VL with G48T, G71D
B11: H06 (antibody, human IgG1, lambda, L234A L235A, V domains shown)
VH: B1 VH with A81L
VL: B1 VL with V38F, G71D
B12: A12 (antibody, human IgG1, lambda, L234A L235A, V domains shown)
VH: B1 VH with A49G, Q78K, S79N
VL: B1 VL with G48T, Y51G, G71D
B13: H09 (antibody, human IgG1, lambda, L234A L235A, V domains shown)
VH: B1 VH with A81L
VL: B1 VL with G48T
B14: H03 (antibody, human IgG1, lambda, L234A L235A, V domains shown)
VH: B1 VH with A81L
VL: B1 VL with V38F, G48T, Y51G
B15: H04 (antibody, human IgG1, lambda, L234A L235A, V domains shown)
VH: B1 VH with A81L
VL: B1 VL with V38F, G48T, Y51G, G71D

Molecular target: recombinant cynomolgus monkey CD3ε/δ heterodimer (cynomolgus monkey) (UniProt Q95LI5)
Sequence (Q95LI5 22-117, stated change not applied, chain 1 of 2): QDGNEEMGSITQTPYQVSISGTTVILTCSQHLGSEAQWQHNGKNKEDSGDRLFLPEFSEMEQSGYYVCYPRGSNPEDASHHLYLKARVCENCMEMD
Sequence (Q95LI8 22-105, stated change not applied, chain 2 of 2, further chain): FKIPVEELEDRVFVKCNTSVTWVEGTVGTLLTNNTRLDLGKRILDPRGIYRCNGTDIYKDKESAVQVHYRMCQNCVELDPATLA
Test: ELISA, coated CD3ε/δ

Point of comparison: B7, Absorbance (450 nm) 0.154. Against it:
- B1 — higher, 0.242
- B2 — lower, 0.09
- B3 — lower, 0.099
- B4 — lower, 0.136
- B5 — lower, 0.061
- B6 — lower, 0.142
- B8 — lower, 0.08
- B9 — lower, 0.083
- B10 — lower, 0.077
- B11 — lower, 0.101
- B12 — lower, 0.068
- B13 — lower, 0.113
- B14 — lower, 0.085
- B15 — lower, 0.068

Molecular target: recombinant human CD3ε/δ heterodimer (human) (UniProt P07766)
Sequence (P07766 23-126, stated change not applied, chain 1 of 2): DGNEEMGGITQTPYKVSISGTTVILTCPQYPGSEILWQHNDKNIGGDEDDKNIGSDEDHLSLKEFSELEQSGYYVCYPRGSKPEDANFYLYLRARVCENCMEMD
Sequence (P04234 22-105, stated change not applied, chain 2 of 2, further chain): as the sequence (Q95LI8 22-105, stated change not applied, chain 2 of 2, further chain) above, with V5I, K15N, V20I, T32S, N33D, N34I, A64T, N74S, L83V counted along it
Test: ELISA, coated CD3ε/δ

Point of comparison: B2, Absorbance (450 nm) 0.11. Against it:
- B1 — higher, 0.265
- B3 — lower, 0.105
- B4 — higher, 0.118
- B5 — lower, 0.078
- B6 — higher, 0.122
- B7 — higher, 0.121
- B8 — higher, 0.111
- B9 — lower, 0.099
- B10 — lower, 0.088
- B11 — higher, 0.134
- B12 — lower, 0.097
- B13 — higher, 0.141
- B14 — higher, 0.113
- B15 — lower, 0.077

Reference: US20200317779A1
